What was measured:
[1] = target: T1, C1q (complement component 1q) (UniProt P02745 23-245; P02746 28-253; P02747 29-245); assay: C1q ELISA, 4-parameter logistic fit; % potency relative to reference standard; TG-1101 from 10 L culture at post-shift pH 6.70 +/- 0.10
Protocol: (§1) The binding of anti-CD20 antibody to C1q is evaluated using a C1q ELISA-based method. The dose-response binding is modeled by weighted nonlinear regression using a 4-parameter logistic fit, and the results are reported as % potency relative to the reference standard.
(§2) Purified antibody (TG-1101) from each of the 10 L bioreactor cultures was also tested in various binding assays (CD20 antigen, Fc gamma receptor, complement component 1q), as well as Fc effector activity assays (ADCC, CDC).

[2] = target: T1, C1q (complement component 1q); assay: C1q ELISA, 4-parameter logistic fit; % potency relative to reference standard; TG-1101 from 10 L culture at post-shift pH 6.80 +/- 0.03
Protocol: as §1, §2

[3] = target: T1, C1q (complement component 1q); assay: C1q ELISA, 4-parameter logistic fit; % potency relative to reference standard; TG-1101 from 10 L culture at post-shift pH 6.85 +/- 0.05
Protocol: as §1, §2

[4] = target: T1, C1q (complement component 1q); assay: C1q ELISA, 4-parameter logistic fit; % potency relative to reference standard; TG-1101 from 10 L culture at post-shift pH 6.95 +/- 0.05
Protocol: as §1, §2

[5] = target: T2, FcγRIIIa-158V (Fc gamma receptor 3a, higher affinity allele) (UniProt P08637 17-208); assay: SPR, Fc receptor immobilised on chip, antibody injected; 1:1 Langmuir fit; % potency relative to reference standard; TG-1101 from 10 L culture at post-shift pH 6.70 +/- 0.10
T2 construct: Immobilised directly on the SPR chip; also called Fc receptor
T2 sequence (P08637 17-208 F176V): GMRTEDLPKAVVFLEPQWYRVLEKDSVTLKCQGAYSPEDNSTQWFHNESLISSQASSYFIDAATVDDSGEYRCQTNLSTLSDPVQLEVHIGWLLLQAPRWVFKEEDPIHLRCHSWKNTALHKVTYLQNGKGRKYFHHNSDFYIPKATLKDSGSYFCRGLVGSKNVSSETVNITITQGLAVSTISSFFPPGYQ
Protocol: (§3) The binding of anti-CD20 antibody samples to FcγRIIIa is evaluated by surface plasmon resonance (SPR). The method follows a direct binding assay methodology where the Fc receptor (ligand) is directly immobilized onto the appropriate flow cell on a sensor chip surface and the analyte is injected over the chip to assess binding. The high affinity allele of FcγRIIIa (158V) is determined.
(§4) The equilibrium dissociation constants (KD) and the relative affinities of each sample relative to the reference standard is determined for each receptor. The rates of change of the SPR signal is analyzed using a 1:1 Langmuir model to yield apparent rate constants for the association and dissociation phases of the reaction, and equilibrium dissociation constants. Results are reported as % potency relative to the reference standard for the FcγRIIIa-158V variant.
as §2

[6] = target: T2, FcγRIIIa-158V (Fc gamma receptor 3a, …); assay: SPR, Fc receptor immobilised on chip, antibody injected; 1:1 Langmuir fit; % potency relative to reference standard; TG-1101 from 10 L culture at post-shift pH 6.80 +/- 0.03
Protocol: as §3, §4, §2

[7] = target: T2, FcγRIIIa-158V (Fc gamma receptor 3a, …); assay: SPR, Fc receptor immobilised on chip, antibody injected; 1:1 Langmuir fit; % potency relative to reference standard; TG-1101 from 10 L culture at post-shift pH 6.85 +/- 0.05
Protocol: as §3, §4, §2

[8] = target: T2, FcγRIIIa-158V (Fc gamma receptor 3a, …); assay: SPR, Fc receptor immobilised on chip, antibody injected; 1:1 Langmuir fit; % potency relative to reference standard; TG-1101 from 10 L culture at post-shift pH 6.95 +/- 0.05
Protocol: as §3, §4, §2

[9] = target: T3, CD20 on the CD20 expressing human mantle cell lymphoma cell line Jeko-1 (human, UniProt P11836 1-297); assay: Cell-based binding to Jeko-1 cells, Meso Scale Discovery electrochemiluminescence, 4PL; % potency relative to reference standard; TG-1101 from 10 L culture at post-shift pH 6.70 +/- 0.10
T3 construct: whole, on cells; The target is presented on Jeko-1 cells; also called CD20 antigen
T3 sequence (looked up): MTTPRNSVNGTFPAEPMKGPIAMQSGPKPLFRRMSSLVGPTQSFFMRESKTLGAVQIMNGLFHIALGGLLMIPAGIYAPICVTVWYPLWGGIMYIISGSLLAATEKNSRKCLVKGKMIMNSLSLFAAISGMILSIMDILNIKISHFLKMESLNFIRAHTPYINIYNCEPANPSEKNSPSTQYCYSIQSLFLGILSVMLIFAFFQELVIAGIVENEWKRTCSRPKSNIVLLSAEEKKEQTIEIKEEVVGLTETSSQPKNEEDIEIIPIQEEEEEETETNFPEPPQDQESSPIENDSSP
Protocol: (§5) In the CD20 binding activity assay, the binding of anti-CD20 antibody to the CD20 expressing human mantle cell lymphoma cell line, Jeko-1, is evaluated using the Meso Scale Discovery (MSD) method. Dose response curves are modeled using 4PL equation, and results are reported as % potency relative to the reference standard.
as §2

[10] = target: T3, CD20 on the CD20 expressing human …; assay: Cell-based binding to Jeko-1 cells, Meso Scale Discovery electrochemiluminescence, 4PL; % potency relative to reference standard; TG-1101 from 10 L culture at post-shift pH 6.80 +/- 0.03
Protocol: as §5, §2

[11] = target: T3, CD20 on the CD20 expressing human …; assay: Cell-based binding to Jeko-1 cells, Meso Scale Discovery electrochemiluminescence, 4PL; % potency relative to reference standard; TG-1101 from 10 L culture at post-shift pH 6.85 +/- 0.05
Protocol: as §5, §2

[12] = target: T3, CD20 on the CD20 expressing human …; assay: Cell-based binding to Jeko-1 cells, Meso Scale Discovery electrochemiluminescence, 4PL; % potency relative to reference standard; TG-1101 from 10 L culture at post-shift pH 6.95 +/- 0.05
Protocol: as §5, §2

T1 sequence (P02745 23-245, chain 1 of 3): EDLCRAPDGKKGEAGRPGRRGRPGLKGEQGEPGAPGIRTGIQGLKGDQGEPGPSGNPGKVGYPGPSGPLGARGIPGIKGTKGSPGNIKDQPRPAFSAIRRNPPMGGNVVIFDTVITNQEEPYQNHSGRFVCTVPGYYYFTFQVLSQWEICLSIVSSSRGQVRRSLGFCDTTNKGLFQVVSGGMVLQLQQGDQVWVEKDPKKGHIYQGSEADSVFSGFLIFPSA
T1 sequence (P02746 28-253, chain 2 of 3): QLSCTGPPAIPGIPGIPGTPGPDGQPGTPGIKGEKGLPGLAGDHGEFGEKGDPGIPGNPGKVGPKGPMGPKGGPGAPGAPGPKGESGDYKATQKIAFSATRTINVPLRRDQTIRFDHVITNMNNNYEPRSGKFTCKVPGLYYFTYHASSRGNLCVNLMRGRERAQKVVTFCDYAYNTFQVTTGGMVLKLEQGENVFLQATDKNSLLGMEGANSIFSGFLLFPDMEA
T1 sequence (P02747 29-245, chain 3 of 3): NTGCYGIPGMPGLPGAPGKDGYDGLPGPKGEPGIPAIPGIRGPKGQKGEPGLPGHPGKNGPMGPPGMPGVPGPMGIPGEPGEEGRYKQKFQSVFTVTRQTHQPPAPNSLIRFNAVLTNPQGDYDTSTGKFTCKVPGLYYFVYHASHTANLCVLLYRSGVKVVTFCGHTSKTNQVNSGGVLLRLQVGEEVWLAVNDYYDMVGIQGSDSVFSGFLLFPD

B1: TG-1101 (anti-CD20 IgG1 monoclonal antibody expressed in YB2/0 rat hybridoma cells) (antibody)
heavy: not shown
light: QIVLSQSPAILSASPGEKVTMTCRASSSVSYMHWYQQKPGSSPKPWIYATSNLASGVPARFSGSGSGTSYSFTISRVEAEDAATYYCQQWTFNPPTFGGGTRLEIKRTVAAPSVFIFPPSDEQLKSGTASVVCLLNNFYPREAKVQWKVDNALQSGNSQESVTEQDSKDSTYSLSSTLTLSKADYEKHKVYACEVTHQGLSSPVTKSFNRGEC
modifications: N-linked glycans with low fucosylation (18.4-27.5 % fucosylation in the 10 L cultures of Table 7)
notes: also called ublituximab; UBX
With B1 the “C1q binding (%) relative to the reference standard” value [1] was 86.6%, the “C1q binding (%) relative to the reference standard” value [2] was 84.5% and the “C1q binding (%) relative to the reference standard” value [3] was 81.2%. For the same binder, the “C1q binding (%) relative to the reference standard” value [4] was 76.5%, the “FcγRIIIa-158V binding (%) relative to the reference standard” value [5] was 120% and the “FcγRIIIa-158V binding (%) relative to the reference standard” value [6] was 98.2%. For the same binder, the “FcγRIIIa-158V binding (%) relative to the reference standard” value [7] was 108%, the “FcγRIIIa-158V binding (%) relative to the reference standard” value [8] was 109% and the “CD20 binding (%) relative to the reference standard” value [9] was 116%. For the same binder, the “CD20 binding (%) relative to the reference standard” value [10] was 96.8%, the “CD20 binding (%) relative to the reference standard” value [11] was 89.5% and the “CD20 binding (%) relative to the reference standard” value [12] was 110%.

Reference: US20260062495A1 (TG THERAPEUTICS, published 2026)
